The values below come from patent US20130039916A1.

In this assay the target is "Bac-wt" human IL-23 (identical to elastikine in sequence, expressed in SF9 cells) (human) (UniProt P29460). In words: BIAcore SPR, antibody immobilised on CM5 chip, IL-23 in solution. Background: In SPR one partner is held on a chip, and binding of the other changes the refractive index at the surface.

As usually defined, the Kd is the free concentration of one partner at which half of the binding sites on the other are occupied at equilibrium, for simple one-to-one binding.

B1: humanized anti-human IL-23p19 antibody 7G10 (antibody, human IgG1, kappa, V domains shown)
VH: QVQLVQSGAEVKKPGASVKVSCKASGYTFTSNVMHWVRQAPGQGLEWMGYINPYNDGTKYNEKFKGRVTMTTDTSTSTAYMELRSLRSDDTAVYYCARNWDVAYWGQGTLVTVSS
VL: DIQMTQSPSSLSASVGDRVTITCRASQSISDYLHWYQQKPGKAPKLLIYYASQSISGVPSRFSGSGSGTDFTLTISSLQPEDFATYYCQNGHSFPFTFGQGTKVEIKR
For the molecule B1, the dissociation constant Kd turned out to be 10 nM.

B2: humanized anti-human IL-23p19 antibody 6H12 (antibody, human IgG1, kappa, V domains shown)
VH: QVQLVQSGAEVKKPGASVKVSCKASGYTFNRYLIHWVRQAPGQGLEWMGYINPNNAGTNYNEKFKGRVTMTTDTSTSTAYMELRSLRSDDTAVYYCARNWDQAYWGQGTLVTVSS
VL: DIQMTQSPSSLSASVGDRVTITCRASQSISDYLHWYQQKPGKAPKLLIYYTSQSISGVPSRFSGSGSGTDFTLTISSLQPEDFATYYCQNGHSFPFTFGQGTKVEIKR
In turn, B2 had a dissociation constant (Kd) of 5.1 nM.
